From patent US20200262913A1 (ZymoGenetics, published 2020) come the findings set out here.

Substitutions are numbered along the chain they refer to. In names and notes the source's numbering stands.

For orientation: Kd means the constant that tells how readily two partners part at equilibrium. One may read the koff as the first-order rate constant of dissociation. In general, kon refers to the second-order rate constant of association.

In test [1] the target is recombinant human IL-31 (C108S), produced in E. coli by ZymoGenetics, MW 18 kDa (human), Q6EBC2. Kind of test: cell-based or functional assay.
The target of test [2] is T1, recombinant human IL-31 (as used in the NHK STAT3 phosphorylation assay of Example 5) (human, UniProt Q6EBC2 24-164, limits assumed).
T1 sequence: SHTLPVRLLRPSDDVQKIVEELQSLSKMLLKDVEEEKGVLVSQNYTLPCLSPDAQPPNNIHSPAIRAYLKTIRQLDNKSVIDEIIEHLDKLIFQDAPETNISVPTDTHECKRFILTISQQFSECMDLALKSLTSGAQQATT
Kind of test: cell-based or functional assay.

Test [3] deals with T2, recombinant human IL-31 (hIL-31, BHK produced, A1277F, zcytor17lig CEE) (human, UniProt Q6EBC2 24-164).
T2 construct: also called recombinant hIL-31
T2 sequence: T1 sequence
Kind of test: SPR (Biacore), against parent 292.12.3.1. The protocol:
(§1) The purified monoclonal antibodies were immobilized in individual flow cells on a CM5 type sensor chip. Immobilizations were performed using a standard amine coupling procedure, aiming for an immobilization level of 500 Resonance Units (RU). The antibodies were diluted to 1-5 ug/ml in 10 mM NaAc pH 4.5.
(§2) HPS-EP pH 7.4 (10 mM HEPES, 150 mM NaCl, 3 mM EDTA and 0.005% Polysorbat P20) was used as running buffer, and diluents for the recombinant hIL-31 (hIL-31, BHK produced, A1277F, zcytor17lig CEE). The hIL-31 was tested in a 3-fold dilution series from 333.3 nM to 1.4 nM. Association (injection) was 4 min., followed by a 20 min. dissociation (wash) period. Flow rate was 50 ul/min. Experiments were performed at 25OC. Regeneration of the surface was accomplished by injection of 30 sec. pulse of 10 mM Glycin-HCl pH 1.8 or 1M formic acid, at a 30 ul/min flow rate. Detection in all flow cells simultaneously. Flow cell #1 contained no immobilized antibody, and was used for subtraction of background and bulk.
(§3) The kinetic parameters were calculated by global fitting of the data using a 1:1 langmuir binding model. Data was inspected for mass-transport limitations prior to calculation of the kinetic parameters. In some experiments the Rmax was fitted locally, and the RI constant at 0.
(In SPR one partner is held on a chip, and binding of the other changes the refractive index at the surface.)

Test [4] concerns the target T2, recombinant human IL-31 (hIL-31, BHK …). Briefly: SPR (Biacore), mAb amine-coupled to CM5 chip, hIL-31 injected. The protocol:
as §1, §2, §3

B1: humanized 292.12.3.1 construct clone 31 (12VH1-gly + HC(F29L, M69L, R71A, V78A, R94F) + LC(F71Y)) (antibody, human IgG4, V domains shown)
VH: QVQLVQSGAEVKKPGASVKVSCKASGYTLTRYWMQWVRQAPGQGLEWMGAIYPGDGDTRYSQKFQGRVTLTADTSISTAYMELSSLRSEDTAVYYCAFPDGYYAAPYGMDYWGQGTLVTVSS
VL: DIQMTQSPSSLSASVGDRVTITCRASGNIHNYLAWYQQKPGKVPKLLIYNAKTLADGVPSRFSGSGSGTDYTLTISSLQPEDVATYYCQHFWSTPWTFGQGTKVEIKR
B1: in test [1], the Average Fold loss in potency relative to 292.12.3.1, BAF-3(hIL-31R) proliferation assay was determined as 25.1 fold and the Average Potency (IC50), inhibition of hIL-31-induced proliferation of BAF-3(hIL-31R) cells was found to be 32.4 nM. In test [2], the “IC50, IL-31-induced STAT3 phosphorylation in NHK, Exp 8” value (“IC50 … Exp 8” below) is 11 nM and the “IC50, IL-31-induced STAT3 phosphorylation in NHK, Exp 9” value (from here on “IC50 … Exp 9”) amounted to 7.82 nM. In test [3], the “Relative potency loss (KD)” value was ~0.4 x to parent. Besides, in test [4], the Kd is 0.77 nM, the off-rate constant (koff) amounted to 7e-05 s⁻¹ and the kon turned out to be 92000 M⁻¹ s⁻¹.

B2: humanized 292.12.3.1 construct clone 32 (12VH1-gly + HC(F29L, R71A, V78A, R94F) + LC(F71Y)) (antibody, human IgG4, V domains shown)
VH: B1 VH with L70M
VL: B1 VL
Turning to B2, in test [1], the Average Fold loss in potency relative to 292.12.3.1, BAF-3(hIL-31R) proliferation assay was found to be 14.7 fold and the Average Potency (IC50), inhibition of hIL-31-induced proliferation of BAF-3(hIL-31R) cells was determined as 18.9 nM. For the same molecule, in test [2], the “IC50 … Exp 8” value is 11.5 nM and the “IC50 … Exp 9” value was 6.43 nM. Moreover, in test [3], the “Relative potency loss (KD)” value is ~0.3 x to parent. Moreover, in test [4], the Kd came out at 0.64 nM, the koff is 5.9e-05 s⁻¹ and the kon was determined as 93000 M⁻¹ s⁻¹.

B3: humanized 292.12.3.1 construct clone 33 (12VH1(germ)-gly + fback) (antibody, human IgG4, V domains shown)
VH: B1 VH with T74K, I76T
VL: B1 VL with G66R, G68E, D70Q, T72S
Regarding B3, in test [1], the Average Fold loss in potency relative to 292.12.3.1, BAF-3(hIL-31R) proliferation assay was found to be 2.3 fold and the Average Potency (IC50), inhibition of hIL-31-induced proliferation of BAF-3(hIL-31R) cells came out at 3.1 nM. Besides, in test [2], the “IC50 … Exp 8” value turned out to be 4.08 nM; the “IC50 … Exp 9” value came out at 5.68 nM; the “IC50, IL-31-induced STAT3 phosphorylation in NHK, Exp 10” value (shortened to “IC50 … Exp 10”) was determined as 13.6 nM. In addition, in test [3], the “Relative potency loss (KD)” value is ~0.6 x to parent. Also, in test [4], the Kd was found to be 1.3 nM, the koff is 6.8e-05 s⁻¹ and the kon came to 52000 M⁻¹ s⁻¹.

B4: humanized 292.12.3.1 construct clone 35 (12VH1-gly + HC(F29L, R94F)) (antibody, human IgG4, V domains shown)
VH: B1 VH with L70M, A72R, A79V
VL: B1 VL with Y71F
As for B4, in test [1], the Average Fold loss in potency relative to 292.12.3.1, BAF-3(hIL-31R) proliferation assay stood at 75.1 fold and the Average Potency (IC50), inhibition of hIL-31-induced proliferation of BAF-3(hIL-31R) cells worked out at 62.1 nM. In test [2], the “IC50 … Exp 10” value is 12 nM. In test [3], the “Relative potency loss (KD)” value is ~0.7 x to parent and the “Relative potency loss (kd)” value is ~1.5 x to parent. In test [4], the Kd was 1.6 nM, the koff was found to be 0.0001 s⁻¹ and the kon was found to be 64000 M⁻¹ s⁻¹.

B5: humanized 292.12.3.1 construct clone 36 (12VH1(germ)-gly + HC(F29L, T73K, R94F) + LC(F71Y)) (antibody, human IgG4, V domains shown)
VH: B1 VH with L70M, A72R, T74K, I76T, A79V
VL: B1 VL
B5: in test [1], the Average Potency (IC50), inhibition of hIL-31-induced proliferation of BAF-3(hIL-31R) cells came to 14.1 nM. The “IC50 … Exp 10” value in test [2] was 8.95 nM. Also, in test [3], the “Relative potency loss (KD)” value was ~0.5 x to parent and the “Relative potency loss (kd)” value was ~1.5 x to parent. In addition, in test [4], the Kd is 1.6 nM, the koff stood at 0.000108 s⁻¹ and the kon turned out to be 68000 M⁻¹ s⁻¹.
